Data from paper PMC11783328 (Science immunology, 2024).

Biological target: T1, BG505 SOSIP.v4.1-GT1.1 (HIV-1 (isolate BG505), UniProt Q2N0S6)
T1 construct: copies: 3 + 3
Test: SPR; Biacore 3000; His-tagged GT1 and GT1.1 trimers captured in parallel flow cells; IgG injected from 1 uM in two- or four-fold dilutions; association 300 s, dissociation 600 s, 50 uL/min; bivalent model (first- and second-point interaction; kon2 and KD2 converted from RU units)
Conditions: both partners purified

B1: gl-3BNC60 (antibody, V domains shown)
VH: not shown
VL: DIQMTQSPSSLSASVGDRVTITCQASQDISNYLNWYQQKPGKAPKLLIYDASNLETGVPSRFSGSGSGTDFTFTISSLQPEDIATYYCQQYEFIGPGTKVDIK
notes: also called 3BNC60 germline; inferred germline precursor of 3BNC60
B1 was tested, and the “stoichiometry N” value was 1.1 paratopes per trimer.
